In patent US20100260765A1 (AstraZeneca / MedImmune, published 2010):

What was measured:
Assay in all cases: cell-based or functional assay
KDR [1] = target: T1, KDR (human, UniProt P35968 20-1356)
KDR [2] = target: T1, KDR; remark: listed apart in the source
KDR [3] = target: T1, KDR; remark: listed apart in the source
KDR [4] = target: T1, KDR; remark: listed apart in the source
KDR [5] = target: T1, KDR; remark: listed apart in the source

T1 sequence (P35968 20-1356): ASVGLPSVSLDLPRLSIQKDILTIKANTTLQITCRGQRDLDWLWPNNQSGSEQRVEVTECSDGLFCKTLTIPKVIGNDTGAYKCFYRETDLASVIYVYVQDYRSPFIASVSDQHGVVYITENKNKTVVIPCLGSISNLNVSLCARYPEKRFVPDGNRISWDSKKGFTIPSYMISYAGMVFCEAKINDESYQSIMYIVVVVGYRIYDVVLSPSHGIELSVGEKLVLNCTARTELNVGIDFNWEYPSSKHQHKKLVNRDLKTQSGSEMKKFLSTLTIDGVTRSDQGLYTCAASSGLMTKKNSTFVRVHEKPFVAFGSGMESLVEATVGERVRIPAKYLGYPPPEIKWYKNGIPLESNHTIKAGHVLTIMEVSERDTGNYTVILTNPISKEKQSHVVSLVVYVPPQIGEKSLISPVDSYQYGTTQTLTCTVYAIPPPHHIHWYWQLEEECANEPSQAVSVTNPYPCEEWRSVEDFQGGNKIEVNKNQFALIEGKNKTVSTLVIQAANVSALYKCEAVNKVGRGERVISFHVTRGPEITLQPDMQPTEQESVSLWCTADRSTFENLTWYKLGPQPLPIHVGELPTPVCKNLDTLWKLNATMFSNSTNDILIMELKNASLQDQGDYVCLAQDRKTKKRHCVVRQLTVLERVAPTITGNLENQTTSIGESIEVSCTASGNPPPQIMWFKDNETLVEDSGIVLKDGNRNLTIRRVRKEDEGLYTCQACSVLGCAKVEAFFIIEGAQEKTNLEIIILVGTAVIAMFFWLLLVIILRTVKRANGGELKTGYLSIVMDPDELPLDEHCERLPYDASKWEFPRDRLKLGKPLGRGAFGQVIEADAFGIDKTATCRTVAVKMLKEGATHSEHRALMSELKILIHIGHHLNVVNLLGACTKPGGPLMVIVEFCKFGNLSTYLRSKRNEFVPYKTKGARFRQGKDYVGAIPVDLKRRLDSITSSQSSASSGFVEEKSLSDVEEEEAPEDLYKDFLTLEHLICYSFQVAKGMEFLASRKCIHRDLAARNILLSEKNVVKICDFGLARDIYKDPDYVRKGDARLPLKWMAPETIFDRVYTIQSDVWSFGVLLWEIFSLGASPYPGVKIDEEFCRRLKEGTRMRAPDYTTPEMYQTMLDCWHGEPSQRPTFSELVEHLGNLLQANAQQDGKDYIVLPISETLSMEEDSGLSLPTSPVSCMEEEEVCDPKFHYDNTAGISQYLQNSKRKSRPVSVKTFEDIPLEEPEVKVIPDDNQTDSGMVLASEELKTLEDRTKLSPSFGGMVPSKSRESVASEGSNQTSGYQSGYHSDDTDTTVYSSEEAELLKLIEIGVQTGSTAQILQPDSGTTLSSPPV

Row | Activity at 133 nM (% Inhibition), 1-hour Pre-incubation at 4° C., Average (KDR [1]) [%] | Activity at 133 nM (% Inhibition), 1-hour Pre-incubation at 4° C., N = 1 (KDR [1]) [%] | Activity at 133 nM (% Inhibition), 1-hour Pre-incubation at 4° C., N = 2 (KDR [1]) [%] | % of Max VEGF KDR pTyr Activity (at 133 nM antibody concentration), Average (KDR [2]) [%] | % of Max VEGF KDR pTyr Activity (at 133 nM antibody concentration), N = 1 (KDR [2]) [%] | % of Max VEGF KDR pTyr Activity (at 133 nM antibody concentration), N = 2 (KDR [2]) [%] | % Inhibition of VEGF165-mediated 6-keto Prostaglandin F1α release at 133 nM Antibody Concentration, Average (KDR [3]) [%] | % Inhibition of VEGF165-mediated 6-keto Prostaglandin F1α release at 133 nM Antibody Concentration, N = 1 (KDR [3]) [%] | % Inhibition of VEGF165-mediated 6-keto Prostaglandin F1α release at 133 nM Antibody Concentration, N = 2 (KDR [3]) [%] | Activity at 133 nM (% Inhibition), 24-hour Pre-incubation at 37° C., Average (KDR [5]) [%] | Activity at 133 nM (% Inhibition), 24-hour Pre-incubation at 37° C., N = 1 (KDR [5]) [%] | Activity at 133 nM (% Inhibition), 24-hour Pre-incubation at 37° C., N = 2 (KDR [5]) [%] | Binder | Activity at 133 nM Antibody Concentration (% Survival Inhibition), Average (KDR [4]) [%] | Activity at 133 nM Antibody Concentration (% Survival Inhibition), N = 1 (KDR [4]) [%] | Activity at 133 nM Antibody Concentration (% Survival Inhibition), N = 2 (KDR [4]) [%]
1 | 81 | 82 | 80 | 5 | 4 | 6 | 114 | 130 | 98 | 69 | 90 | 48 | 31E11 (antibody, V domains shown) VH: QVQLVESGGGLVKPGGSLRLSCAASGFTFSDYYMSWIRQAPGKGLEWVSYISISGSTIYYADSVKGRFTISRDNAKNSLYLQMNSLRAEDTAVYYCARDDFWSGYYFNWFDPWGQGTLVTVSS VL: DIQMTQSPSSLSASVGDRVTITCRANQTISTFLNWYQQNPGKAPKLLIYAASSLQSGVPSRFSGSGSGTDFTLTISSLQPEDFATYYCQQTYIIPLTFGGGTKVEIK | 89 | 83 | 95
2 | 80 | 80 | 80 | 14 | 12 | 15 | 68 | 66 | 70 | 72 | 76 | 69 | 24B3 (antibody, V domains shown) VH: EVQLVESGGGLVKPGGSLRLSCAASGFTFSTYSMNWVRQAPGKGLEWVSFISGRSSYIYYADSVKGRFTISRDNAKNSLYLQMNSLRAEDTAVYYCSKDDWFEELWGQGTLVTVSS VL: DIQMTQSPSSLSASVGDRVTITCRASQGIRSDLGWYQQKPGKAPKRLIYATSSLQSGVPSRFSGSGSGTEFTLTISSLQPEDFATYYCLQHNRYPWTFGQGTKVEIK | 65 | 65 | 64
3 | 27 | 32 | 21 | 10 | 9 | 11 | 9 | 6 | 11 | 73 | 73 | 73 | 32C11 (antibody, V domains shown) VH: EVQLLESGGTLVQPGGSLRLSCAASGFTFSNYAMSWVRQAPGKGLEWVSAISGRAGSTYYADSVKGRFTISRDNSKNTLFLQMNSLRAEDTAVYYCAKASGDDWGQGTLVTVSS VL: not shown | -91 | -95 | -87
